Experiment [1] addresses Myb3 (endogenous). The experiment is described as follows: co-immunoprecipitation with anti-HA antibody, Western blotting. The settings on record: for ratio to parent: three experiments. Background: A western blot detects proteins with antibodies after separation by electrophoresis.
For experiment [2], the target named is binding immunoglobulin protein (TvBip). The experiment is described as above. As to conditions: three experiments.
Experiment [3] deals with heat shock protein 72 (TvHSP72). The description is as above. The settings on record: three experiments.
Experiment [4] has as its target hydrogenosomal heat shock protein 70 (HdHSP70). The experiment is described as above. The settings on record: total lysate, three experiments.
Experiment [5] deals with TvMyb3IPhmw. Described as above. The settings on record: P100 fraction; three experiments.
Experiment [6] deals with His-TvCyP2 (Trichomonas vaginalis) (UniProt A2DLL4). The experiment is described as follows: ITC. On the technique in general: Isothermal titration calorimetry measures the heat released or taken up as one component is titrated into another.

What is called Kd is the equilibrium constant for the complex coming apart.

Consider HA-TvCyP1 (from UniProt A2DT06) R63A, for which the ratio to parent was 0.6 in experiment [1] (total lysate, ** p < 0.01); 1 in experiment [2] (total lysate); 0.5 in experiment [3] (total lysate, ** p < 0.01); 0.1 in experiment [4] (** p < 0.01).
In experiment [1], HA-TvCyP2 (from UniProt A2DLL4) R75A displayed an other: relative signal intensity of 0.1. Besides, the ratio to parent in experiment [1] (P15 fraction, * p < 0.05) worked out at 0.7; in experiment [1] (P100 fraction, ** p < 0.01), 0.5; in experiment [1] (total lysate, ** p < 0.01), 0.4; in experiment [5], 1; in experiment [2] (P15 fraction) it was 1; in experiment [2] (P100 fraction), 1. Besides, the ratio to parent turned out to be 0 in experiment [2] (total lysate, ** p < 0.01); 0.7 in experiment [3] (P100 fraction, * p < 0.05); 0.6 in experiment [3] (S100 fraction, ** p < 0.01); 1.6 in experiment [3] (total lysate, ** p < 0.01); 0.9 in experiment [4].
As for His-Myb3^53–180 (domain or fragment), in experiment [6], the dissociation constant Kd came to 55 µM. This counts as double-digit micromolar.

For the origin of these results see paper PMC6985235.
